Blank lines part the entries; values can stand above or below the molecule they belong to.
Assays:
Shank1CΔPEST = assay: co-sedimentation
Homer1b (rat) = assay: AUC
[1] = target: Homer1b I332R/I337E (rat); assay: AUC
Homer1bΔ329 (rat) = assay: AUC
crystal structure = target: the molecule itself; assay: crystal structure

percent precipitated (Shank1CΔPEST): 50%
stoichiometry N (Homer:Shank molar ratio) (Shank1CΔPEST): 1
stoichiometry N (Homer1b (rat)): 4.2 mer
Molecule: Homer1b (natural protein)

stoichiometry N [1]: 2 mer
Molecule: Homer1b I332R/I337E (natural protein)

stoichiometry N (Homer1bΔ329 (rat)): 2.1 mer
Molecule: Homer1bΔ329 (domain or fragment)

B1: Homer3CC2 (287 – carboxy-terminus of Homer3a) (domain or fragment, human, UniProt Q9NSC5 287-361, looked up)
chain: AAEREETQQKVQDLETRNAELEHQLRAMERSLEEARAERERARAEVGRAAQLLDVSLFELSELREGLARLAEAAP
binding result (crystal structure): binds

Source: publication PMC2680917 (Cell, 2009)
